{"source": "the nanobody polyreactivity screen of Harvey et al. (2022)"}
{"assay": "yeast display, Sf9 membrane polyspecificity reagent, FACS + sequencing; frameworks hold sequencing errors", "how_it_was_run": "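Genes from sorted yeast were amplified by colony PCR, read by MiSeq 2 × 250 sequencing and filtered on CDR length. These cells carried a synthetic nanobody library in Saccharomyces cerevisiae BJ5465 and were sorted by FACS into low and high (top ~1%) gates on anti-HA and streptavidin fluorescence. Polyreactivity is labelled according to the gate of origin.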"}
{"sequence": "QVQLVESGGGLVQAGGSLRLSCAASGRTFYVKVMGWYRQEPGKERELVAVISRSDGSTTYADSVKGRFTISRDNAKNTVYLQMNSLKPEDTAVYYCNTDLPLGSGVLPDWELFDYWGQGTQVTVSS", "polyreactivity (PSR sort gate)": "low polyreactivity"}
{"sequence": "QVQLVESGGGLVQAGGSLRLSCAASGFTFGANVMGWYRQAPGKERELVAAITSSGGSTYYADSVKGRFTISRDKAKNTVYLQMYSLKPEDTAVYYCNRRRGAYYGYYWGQGTQVTVSS", "polyreactivity (PSR sort gate)": "high polyreactivity"}
{"sequence": "QVQLVESGGGLVQAGGSHRLSCAASGLTFVDNAMGWYRQAPGKDRELVAANSYNGGSTYYADSVKGRFTISRDNAKNTVYLQLHRLKPEDTAVYYCAADISVGRYGDMDDWGQGTQVTVSS", "polyreactivity (PSR sort gate)": "low polyreactivity"}
{"sequence": "QVQLVESGGGLVQAGGSLRLSCAASGITFGWYAMGWYRQAPGKERELVAAISTGSSTYYADSVKGRFTISRDNAKNTVYLQMNSLKPEDTAVYYCAAYYGISFDYWGQGSQVTVSS", "polyreactivity (PSR sort gate)": "high polyreactivity"}
{"sequence": "QVQLVESGGGLVQAGGSHRISCAASGFIFPYYAMGWYRQAPGKERELVAAITSGGSTNYADSVKGRFTISRDNAKNTVYLQMTSLKPEDTAVYYCDKRLKRWSVYCRYDYWGQGTQVTVSS", "polyreactivity (PSR sort gate)": "high polyreactivity"}
{"sequence": "QVQLVESGGGLVQAGGSLRLSCAASGSIFYPYAMGWYRQAPGKERELVAAISYSGGITYYADSVKGRFTISRDNAKNTVYLQMNSLKPEDTAVYYCNKLIYFKPAGSHDYWGQGTQVTVSS", "polyreactivity (PSR sort gate)": "high polyreactivity"}
{"sequence": "QVQLVESGGGLVQAGGSLRLSCAASGGIFRGYAMGWYRQAPGKERELVAAITKRGGRTYYADSVKGRFTISRDNAKNTVYLQMNSLNPEDTAVFYCAADYYAAYHLPDLDYDYWGQGTQVTVSS", "polyreactivity (PSR sort gate)": "high polyreactivity"}
{"sequence": "QVQLQESGGGLVQAGGSLRLSCAASGYIFVDYTMGWHRQAPGKERELVATINLGATSYYADSVKGRFTISRDNAKNTVYQQMNSLKPEDTAVYYCAVALQQVNYFPYWCQGTQVTVSS", "polyreactivity (PSR sort gate)": "low polyreactivity"}
{"sequence": "QVQLVESGGGLVQAGGSLRLSCAASGSIFRANVMGWYRQAPGKERELVASINSDDNTYYADSVKGRFTISRDNAKNTVYLQMKRLKPEDSAVYYCYSEWGLFYDWTVLHMYLDGYYYWGQGTEVTVSS", "polyreactivity (PSR sort gate)": "low polyreactivity"}
{"sequence": "QVQLEDSGGGLVQAGGSLRLICAASGSIFGYYAMGWDRQAPGKERELVAAIDSGGSTYYADSVKGRFTISRDNAKNTVYLQMNSLKPEDTAVYYCAAGVSSFSPYDSWGQGTQVTVSS", "polyreactivity (PSR sort gate)": "low polyreactivity"}
{"sequence": "QVQLVESGGGLVQAGGSLRLSCAASGRNFSGNTMGWYRQAPGKERELVAAITGRGGSTYYADSVKGRFTISRDNAKNTVYLQMNSLKPEDNAVYYCAALRYTFAGRFDYWGQGTQVTVSS", "polyreactivity (PSR sort gate)": "high polyreactivity"}
{"sequence": "QVQLVESGGGLVQAGGSLRLSCAASGIIFRWYTMGWYRQAPGKERELVAAISSGGSTYYADSVKGRFTISRDNAKNTVYLQMNSLKPEDTAVYYCAARYITTYAYGYWGQGTQVTVSS", "polyreactivity (PSR sort gate)": "high polyreactivity"}
{"sequence": "QVQLVESGGGLVQAGGSLRLSCAASGSTFARYAMGWYRQAPGKERELVAAISRRGGSTYYADSVKGRFTISRDNAKNTVYLQINSLKPEDTAVYYCAARYGIITSFEYDYWGQGTQVTVSS", "polyreactivity (PSR sort gate)": "high polyreactivity"}
{"sequence": "QVQLVETGGGLVQAGGSLRLSCAPSGNTIIRYAMGWYRQAPGKERELVAAISYSGGRTYYADSVKGRFTISRDNAKNTVYLQMNSLKPEDTAVYYCNAASRYGGDYWGPGTQVTVSS", "polyreactivity (PSR sort gate)": "high polyreactivity"}
{"sequence": "QVQLVESGGGLVQAGGSLRLSCAASGSTFTYNAMGWYRHAPGKERELVASISSGTTTYYADSVKGRFTISRDNAKNTVYLQLNSLKPEDTAVYFCAVDSWSRVQGWLAHNYDYWGQGTQVTVSS", "polyreactivity (PSR sort gate)": "low polyreactivity"}
{"sequence": "QVQLVESGGGLVQAGGSLRLSCAASGLTFKDNVMGWYRQAPGKERELVAAISSSGGSTYYADSVKGRFTLSRDNAKNTVYLQMNSLKPEDTAVYYCAAPTFSRYYYWGQGTQVTVSS", "polyreactivity (PSR sort gate)": "high polyreactivity"}
{"sequence": "QVQLVESGGGLVQAGGSLRLSCAASGRTFRHNAMGWYRQAPGKERELVATINRGGNTYYADSVKGRFTISRDNAKNTVYLQMNSLKPEDTAVYYCAARRSFLFDEGNYWGQGTQVTVSS", "polyreactivity (PSR sort gate)": "low polyreactivity"}
{"sequence": "QVQLVESGGGLVQAGGSLRLSCAASGRIFGIYAMGWYRQAPGKERVLVAAISRSGGSTYYADSVKGRFTISRDNAKNTVYLQMNSLKPEDTAVYYCAADSRSWTGYYYWGQGTQVTVSS", "polyreactivity (PSR sort gate)": "high polyreactivity"}
{"sequence": "QVQLVESGGGLVQAGGSLRLSCAASGSTFYYNAMGWYRQAPGKETELVADISWRGGITYYADSVKGRFTISRDNAKNTVYLQMNSLKPEDTAVYYCNADAESFDDGYWGQGTQVTVSS", "polyreactivity (PSR sort gate)": "low polyreactivity"}
{"sequence": "QVQLVESGGGLVQAGGSLRLSCAASGYTFGTYAMGWYRQAPGKERELVAAITWRGGSTYYADSVKGRFTISRDNAKYTFYLQMNSLIPEDTAVYYCNADIKQRSDRYDYWGQGTQVTVSS", "polyreactivity (PSR sort gate)": "high polyreactivity"}
{"sequence": "QVQLVESGGGLVQAGGSLRLSCAASGSTLSNNAMGWYRQAPGKERELVAAINDSAGSTYYADSVKGRFTISRDNAKNTVYLQMNSLKPEDTAVYYCAAKNYGRSFYYGYDYWEQGTQVTVSS", "polyreactivity (PSR sort gate)": "low polyreactivity"}
{"sequence": "QVQLVESGGGLVQAGGSLRLSCAASGSTFSRNAMGWYRQAPGKERELVAAITSGGRTYYADSVKGRFTISRDNAKNTVYLQMNSLKPEDTAVYYCAAVHRYPIHYDYWGQGTQVTVSS", "polyreactivity (PSR sort gate)": "low polyreactivity"}
{"sequence": "QVQLVESGGGLVQAGGSLRLSCAASGFTFGRYAMGWYRQAPWKERELVADITWSGGSTYYADSVKGRFSISRDFAKNTVYLQMNSLKPEDTAVYYCNRLSKNREYDYWGQGTQVNVSS", "polyreactivity (PSR sort gate)": "high polyreactivity"}
{"sequence": "QVQLVESGGGLVQAGGSLRLSCAASGSTFINYAKGWYRHAPGKERELVAAYADSVKGRFSISRDNAKNTVYLQMNSLKPEDTAVYYCAARGTIYVLGVPARPVPDGDYWGQGTQVTVSS", "polyreactivity (PSR sort gate)": "low polyreactivity"}
{"sequence": "QVQLVESGGGLVQAGGSLRLSCAASGRTFDWYVMGWYRQAPGKERELVATITRDGSTNYADSVKGRFTISRDNAKNTVYLQMNSLKPEDTAVYYCAATVPPLVGYDYWGQGTQVTVSS", "polyreactivity (PSR sort gate)": "low polyreactivity"}
{"sequence": "QVQLVESGGGLAQAGGSLRLSCAASGNILRINGMGWYRQAPGKERELVASITRSGSTYYADSVKGRFTISRDNAKNTVYLQMNSLKPEDTAVYYCAADSRRYGVRFDYWGQGTQVTVSS", "polyreactivity (PSR sort gate)": "low polyreactivity"}
{"sequence": "QVQLVESGGGLVQAGGSLRLSCAASGLTFRAYAMGWYRQAPGKERELVAAITWSGGSTYYADSVKGRFTISRDNAKNTVYLQMNSLKPEDTAVYYCTAVLRAGYWYYSHGYDYWGQGTQVTVSS", "polyreactivity (PSR sort gate)": "low polyreactivity"}
{"sequence": "QVQLVESGGGLVQAGGSLRLSCAASGSIFYVNAMGWYRQAPGKERELVASITASGGTTYYADSVKGRFTISRDNAKNNVYLQMNSLKPEDTAVYYCAATFIQVVVNVQLYDYDYWGQGTQVTVSS", "polyreactivity (PSR sort gate)": "low polyreactivity"}
{"sequence": "QVQLVESGGGLVQAGGSLRLSCAASGSTFHYYARGWYSQAPGKDRELVAAIRTSGGSTYYADSVKGRFTISRDNEKNTVYLLMNCLKPEDTAVYYCNRVLGYPYGVDYWGQGTQVTVSS", "polyreactivity (PSR sort gate)": "high polyreactivity"}
{"sequence": "QVQLVESGGGLVQAGGSLRLSCAASGRIFPTNAMGWYRQAPGKERELVASITRSGSTYYADSVKGRFTISRDNAKNTVYLQMNSLKPEDTAVYYCAKRYRYSVGWPVKNSAFGYWGQGTQVTVSS", "polyreactivity (PSR sort gate)": "low polyreactivity"}
{"sequence": "QFQLVESGGGLVQAGGSLRLSCAASGRIFDFYAMGWYREAPGKERELVAAISWRGGSTYYAHSVKGRFTISRDNAKNTVYLQMNSLKPEDTAVYYCATRFGPRYYWGQGTQVTVSS", "polyreactivity (PSR sort gate)": "low polyreactivity"}
{"sequence": "QVQLVESGGGLVQAGGSLRLSCAASGRIVGFYGMGWYRQAPGKERELVARITVGGGSTYYADSVKGRFTISRDNAKNTGYLQMNSLKPEDTAVYYCNAVYARYGSQGYEYWGQGTQVTVSS", "polyreactivity (PSR sort gate)": "high polyreactivity"}
{"sequence": "QVQLVESGGGLVQAGGSLRLSCAASGSTFYFNAMGWYIQAPGKERELVADINYSGTSTYYADSVKGRFTISRDNAKNTVYLQMNSLKPEDTAVYYCAKSLPSSNTSTSYDYWGQGTQVTVSS", "polyreactivity (PSR sort gate)": "low polyreactivity"}
{"sequence": "QGQLVESGGGLVQAGGSLRLSCAASGFTFDYYAMGWYRQATGKEREFVAAISSRGDDTYYADSVKGRFTISRDNAKNTVYLQMNSLKPEDTAVYYCAALDPWKPEYDYWGQGTQVTLSS", "polyreactivity (PSR sort gate)": "high polyreactivity"}
{"sequence": "QVQLVESGGGLVQAGGSLRLSCAASGLIFKVYAMGWYRQAPGKEWELVAAITYSGGSTDYADSVKGRFTISRDNAKNTVNLQMNSLKPEDTAVYYCNVEKVGHVNSYGYDYWGQGTQVTVSS", "polyreactivity (PSR sort gate)": "low polyreactivity"}
{"sequence": "QVQLVESGGGLVQAGGSLRLSCAASGFIFSRYSMGWYRQAPGKERELVAGITSRGGITYYADSVKGRFTISRDNAKNTVYLQMNSLIPEDTAVYYCNAGKSLSKSFDYWGQGTQVTVSS", "polyreactivity (PSR sort gate)": "high polyreactivity"}
{"sequence": "QVQHVESGGGLVQAGGSLRLSCAASGLTFELYAMGWYRQAPGKERELVAAITWSGGRTYDADSVKGRFTISRDNAKNTVYLQMNSLKPEDTAVYYCAADVYPGYVGSQEYDYWGQGTQVTVSS", "polyreactivity (PSR sort gate)": "low polyreactivity"}
{"sequence": "QVQLVESGGGLVQAGGSLRLSCAASGLIFVRYAMGWYRQAPGKERELVAAITTGGRTYYADSVKGRFTISRDNAKNTVYLQMNSLKPEDTAVYYCAAQSFYGIYYGQQDYDYWGQGTQVTVSS", "polyreactivity (PSR sort gate)": "high polyreactivity"}
{"sequence": "QVQLVESGGGLVQAGGSLRLSCAASGSIFRWYAMGWYRQAPGKERELVAAISKSGGTTYYADSVKGRFTISRDNAKNTVYLQMNSLKPEDTAVYYCAARRYPYGGYGYRYDYWGQGTQVTVSS", "polyreactivity (PSR sort gate)": "high polyreactivity"}
{"sequence": "QVQLVESGGGLGQAGGSLRLSCAASGRIFRDYAMGWYRQAPGKERQLVAAISWSGGSSYYADSVKGRFTISRDNAKNTVDLQMNSLKQEDTAVYYCAVEYYGGDSYRYDYWGQGTQVTVSS", "polyreactivity (PSR sort gate)": "low polyreactivity"}
{"sequence": "QVQLVESGAGLVQAGGSLRLSCAASGFTFYYNAMGWYRQAPGKERELVASISSNGTSTYYADSVKGRFTISRDYAKNTVYLQMNSLKPEDTAVYYCNVDIFDPRTYDYWGQGTQVTVSS", "polyreactivity (PSR sort gate)": "low polyreactivity"}
